B1: human non-receptor tyrosine PTPase TC-PTP (protein)
chain: MPTTIEREFEELDTQRRWQPLYLEIRNESHDYPHRVAKFPENRNRNRYRDVSPYDHSRVKLQNAENDYINASLVDIEEAQRSYILTQGPLPNTCCHFWLMVWQQKTKAVVMLNRIVEKESVKCAQYWPTDDQEMLFKETGFSVKLLSEDVKSYYTVHLLQLENINSGETRTISHFHYTTWPDFGVPESPASFLNFLFKVRESGSLNPDHGPAVIHCSAGIGRSGTFSLVDTCLVLMEKGDDINIKQVLLNMRKYRMGLIQTPDQLRFSYMAIIEGAKCIKGDSSIQKRWKELSKEDLSPAFDHSPNKIMTEKYNGNR
B2: bacterial lambda PTPase (protein)
chain: MRYYEKIDGSKYRNIWVVGDLHGCYTNLMNKLDTIGFDNKKDLLISVGDLVDRGAENVECLELITFPWFRAVRGNHEQMMIDGLSERGNVNHWLLNGGGWFFNLDYDKEILAKALAHKADELPLIIELVSKDKKYVICHADYPFDEYEFGKPVDHQQVIWNRERISNSQNGIVKEIKGADTFIFGHTPAVKPLKFANQMYIDTGAVFCGNLTLIQVQGEGA

Target: JAK2 immunoprecipitated from BMMC lysates (tyrosine-phosphorylated), Q62120
Sequence (Q62120 whole entry): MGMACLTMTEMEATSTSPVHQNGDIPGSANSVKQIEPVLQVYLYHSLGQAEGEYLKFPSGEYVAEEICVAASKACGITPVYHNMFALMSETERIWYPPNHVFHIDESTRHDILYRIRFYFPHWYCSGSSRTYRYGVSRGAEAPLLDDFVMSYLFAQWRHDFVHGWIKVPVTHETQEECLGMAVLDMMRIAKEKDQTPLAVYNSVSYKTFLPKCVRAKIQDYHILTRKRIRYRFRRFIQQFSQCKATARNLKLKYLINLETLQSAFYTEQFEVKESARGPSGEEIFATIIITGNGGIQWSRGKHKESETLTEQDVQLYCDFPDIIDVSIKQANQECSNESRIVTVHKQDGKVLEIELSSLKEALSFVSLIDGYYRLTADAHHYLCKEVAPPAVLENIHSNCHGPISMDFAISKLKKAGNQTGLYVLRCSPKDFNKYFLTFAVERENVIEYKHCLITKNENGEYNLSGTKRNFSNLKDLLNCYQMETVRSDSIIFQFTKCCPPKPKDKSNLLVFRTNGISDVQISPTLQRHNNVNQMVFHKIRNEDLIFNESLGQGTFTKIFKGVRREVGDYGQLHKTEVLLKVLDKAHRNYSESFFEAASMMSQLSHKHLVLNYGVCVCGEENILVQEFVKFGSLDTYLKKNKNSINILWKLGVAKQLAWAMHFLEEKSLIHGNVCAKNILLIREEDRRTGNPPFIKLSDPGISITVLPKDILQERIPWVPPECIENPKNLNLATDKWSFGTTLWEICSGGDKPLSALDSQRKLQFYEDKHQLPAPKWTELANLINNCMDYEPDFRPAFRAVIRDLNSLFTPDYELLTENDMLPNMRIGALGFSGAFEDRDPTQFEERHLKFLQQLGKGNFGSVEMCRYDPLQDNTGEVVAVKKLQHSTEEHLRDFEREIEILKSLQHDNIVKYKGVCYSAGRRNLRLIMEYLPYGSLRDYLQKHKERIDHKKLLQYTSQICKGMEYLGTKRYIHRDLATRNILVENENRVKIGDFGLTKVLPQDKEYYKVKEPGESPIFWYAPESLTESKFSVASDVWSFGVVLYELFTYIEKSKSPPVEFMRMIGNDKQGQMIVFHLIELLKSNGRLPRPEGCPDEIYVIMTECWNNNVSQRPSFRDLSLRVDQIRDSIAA

Protein	tyrosine dephosphorylation in vitro (phosphatase assay)
B1	the human non-receptor tyrosine PTPase TC-PTP and the bacterial lambda PTPase did not dephosphorylate JAK2 in vitro
B2	the human non-receptor tyrosine PTPase TC-PTP and the bacterial lambda PTPase did not dephosphorylate JAK2 in vitro

Reference: US20030175270
